Data on four molecules can be found in US20180305450A1 (AstraZeneca / MedImmune, published 2018).

Experiment [1] addresses T1, recombinant biotinylated human PAR2 extracellular domain (residues 1-75), N-terminal AviTag, C-terminal Flag … (human, UniProt P55085 26-75, biotin on the AviTag (enzymatic biotinylation)).
T1 construct: also called Bio-human-PAR2 ECD; human PAR2 ECD; not shown: N-terminal AviTag (Avidity LLC); C-terminal Flag and poly Histidine tags
Description: Biacore SPR 25 C, pH 6.0. The method, then:
(§1) The experiments were carried out using recombinant human, rat and cynomolgus PAR2 with an N-terminal Avi tag and C-terminal Flag-His tags.
(§2) Streptavidin was covalently immobilised to a C1 chip surface using standard amine coupling techniques at a concentration of 4 μg/ml in 10 mM Sodium acetate pH 4.5. A final streptavidin surface of approximately 30-100 RUs was achieved. Recombinant biotinylated PAR2 species (produced in-house) were titrated onto the streptavidin chip surface at 4 μg/ml in HBS-EP+ buffer to enable Fab binding at saturation (Rₘₐₓ). This low level of analyte binding ensured minimal mass transport effects.
(§3) The anti-PAR2 Fabs were serially diluted (0.39 nM-25 nM) in HBS-EP+ buffer pH 7.4 or MES-BS-EP+ pH 6.0 buffer or in MES-BS-EP+ pH 5.6 buffer and flowed over the chip at 50 μl/min, with 3 minutes association and up to 30 minutes dissociation. Multiple buffer-only injections were made under the same conditions to allow for double reference subtraction of the final sensorgram sets, which were analysed using the BiaEval software (version 2.0.1). The chip surface was fully regenerated with pulses of 4 M MgCl₂.

Experiment [2] addresses T2, recombinant biotinylated rat PAR2 extracellular residues 1-75, N-terminal AviTag, C-terminal Flag and poly … (rat, UniProt Q63645 26-75, not fully specified; biotin on the AviTag (enzymatic biotinylation)).
T2 construct: range 1-75; not shown: N-terminal AviTag (Avidity LLC); C-terminal Flag and poly Histidine tags
T2 chain (looked up): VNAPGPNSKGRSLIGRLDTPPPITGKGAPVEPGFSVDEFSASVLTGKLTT
Description: Biacore SPR 25 C, pH 6.0. The method, then:
as §1, §2, §3

The target in experiment [3] is T1, recombinant biotinylated human PAR2 …. The experiment can be described thus: Biacore SPR 25 C, pH 7.4. The procedure:
as §1, §2, §3
In general terms: In SPR one partner is held on a chip, and binding of the other changes the refractive index at the surface.

For experiment [4], the target named is T2, recombinant biotinylated rat PAR2 …. Description: Biacore SPR 25 C, pH 7.4. The method, then: as §1, §2, §3
In experiment [5] the target is T1, recombinant biotinylated human PAR2 …. Description: Biacore SPR 25 C, pH 5.6. The procedure:
as §1, §2, §3

For experiment [6], the target named is T3, recombinant biotinylated cynomolgus (Macaca fascicularis) PAR2 extracellular residues 1-75, N-terminal … (cynomolgus (Macaca fascicularis)).
T3 construct: range 1-75; also called cynomolgus PAR2
The experiment can be described thus: Biacore SPR 25 C, pH 5.6. The procedure:
as §1, §2, §3

Experiment [7] has as its target T1, recombinant biotinylated human PAR2 …. The experiment can be described thus: Biacore SPR 25 C, pH 6.0. The procedure:
as §1, §2, §3
This is another data set of the same source.

For experiment [8], the target named is T3, recombinant biotinylated cynomolgus …. The experiment can be described thus: Biacore SPR 25 C, pH 6.0. The procedure:
as §1, §2, §3

The target in experiment [9] is T1, recombinant biotinylated human PAR2 …. Description: Biacore SPR 25 C, pH 7.4. The procedure:
as §1, §2, §3
The source holds these as a separate data set.

The target of experiment [10] is T3, recombinant biotinylated cynomolgus …. The experiment can be described thus: Biacore SPR 25 C, pH 7.4. The procedure:
as §1, §2, §3

Experiment [11] has as its target T1, recombinant biotinylated human PAR2 …. Description: Biacore SPR 25 C, pH 6.0 (second row). The procedure: as §1, §2, §3
Experiment [12] concerns the target T3, recombinant biotinylated cynomolgus …. Description: Biacore SPR 25 C, pH 6.0 (second row). The method, then: as §1, §2, §3
Experiment [13] concerns the target T1, recombinant biotinylated human PAR2 …. The experiment can be described thus: Biacore SPR 25 C, pH 7.4 (second row). The method, then: as §1, §2, §3
For experiment [14], the target named is T3, recombinant biotinylated cynomolgus …. The experiment can be described thus: Biacore SPR 25 C, pH 7.4 (second row). The method, then: as §1, §2, §3
Experiment [15] concerns the target T1, recombinant biotinylated human PAR2 …. Description: Biacore SPR 25 C, pH 7.4; pH 7.4; human; second determination. The method, then: as §1, §2, §3
Experiment [16] has the same target. Description: Biacore SPR 25 C, pH 6.0. The method, then:
as §1, §2, §3
The source holds these as a separate data set.

In experiment [17] the target is T2, recombinant biotinylated rat PAR2 …. Description: Biacore SPR 25 C, pH 6.0. The method, then:
as §1, §2, §3

The target of experiment [18] is T1, recombinant biotinylated human PAR2 …. Description: Biacore SPR 25 C, pH 7.4. The procedure: as §1, §2, §3
This is another data set of the same source.

The target of experiment [19] is T2, recombinant biotinylated rat PAR2 …. The experiment can be described thus: Biacore SPR 25 C, pH 7.4. The procedure:
as §1, §2, §3

In experiment [20] the target is T1, recombinant biotinylated human PAR2 …. Description: Biacore SPR 25 C, pH 6.0; pH 6.0; human PAR2. The procedure:
as §1, §2, §3

In experiment [21] the target is T4, human PAR2 on cells (endogenous in A549 cells; overexpressed in 1321N1-hPAR2-c18 cells) (human, UniProt P55085 37-397).
T4 sequence: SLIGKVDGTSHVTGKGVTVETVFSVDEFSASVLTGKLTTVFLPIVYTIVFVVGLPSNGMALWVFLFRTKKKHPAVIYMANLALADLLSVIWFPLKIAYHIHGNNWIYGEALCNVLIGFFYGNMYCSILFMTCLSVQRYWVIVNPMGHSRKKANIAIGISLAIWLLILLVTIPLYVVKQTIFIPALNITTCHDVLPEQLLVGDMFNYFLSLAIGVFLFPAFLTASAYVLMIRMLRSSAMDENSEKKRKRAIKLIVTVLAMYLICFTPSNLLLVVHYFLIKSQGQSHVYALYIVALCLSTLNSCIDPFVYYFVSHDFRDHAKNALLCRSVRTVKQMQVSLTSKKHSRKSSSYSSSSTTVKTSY
The experiment can be described thus: cell-based or functional assay.

Experiment [22] deals with T1, recombinant biotinylated human PAR2 …. The experiment can be described thus: HTRF competition with Dylight650-Par0067 IgG, IgG. An outline of the steps: (§4)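 IgGs were run as duplicate 11-point 1:3 dilutions in pH 7.4 and pH 6.0 buffers; the Par0067 reference started at 500 nM final and test IgGs at ¼ of the neat sample. % specific binding against antibody concentration was fitted to a 4-parameter logistic curve to give IC50.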
Background: Time-resolved FRET reads energy transfer from a long-lived donor to a nearby acceptor.

For experiment [23] the target is unchanged. Description: HTRF competition with Dylight650-Par0067 IgG, pH 7.4, IgG. In a few lines: as §4

By Kd is commonly meant the free concentration of one partner at which half of the binding sites on the other are occupied at equilibrium, for simple one-to-one binding. As usually defined, the koff is the first-order rate constant of dissociation. The kon is the second-order rate constant of association. The IC50 is the midpoint of a concentration-inhibition curve.

Where a chain is given by its changes, count along the chain named. Numbers in names are those of the source.

T1 sequence (P55085 26-75): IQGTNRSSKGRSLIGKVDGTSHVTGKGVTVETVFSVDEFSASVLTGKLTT

B1: PaB670129 Fab (Fab, V domains shown)
VH: EVQLLESGGGLVQPGGSLRLSCAASGFTFSSYAMNWVRQAPGKGLEWVSTISYHGSHISYHDSVHHRFTISRDNSKNTLYLQMNSLRAEDTAVYYCARIHHDPMDVWGQGTLVTVSS
VL: SIELTQPPSVSVSPGQTASITCSGDNLGKKYVQWYQQKPGQSPVLVIYDDSNRPSGIPERFSGSNSGNTATLTISGTQAMDEADYYCQTWDGNPTTGETNVFGGGTKLTVL
notes: Fab; also called ZZ1RUE-F02
In the case of B1, the Kd was found to be 34.8 nM in experiment [1]; 57.9 nM in experiment [2]; 0.614 nM in experiment [3]; 2.98 nM in experiment [4]; 84.5 nM in [5]; 37.8 nM in experiment [6]. Further, the Kd in experiment [7] was 36.9 nM; in experiment [8], 12.8 nM; in [9] it was 0.748 nM; in experiment [10], 0.333 nM; in experiment [11], 33.5 nM; in experiment [12] it was 13.6 nM. In addition, the Kd is 0.778 nM in [13] and 0.335 nM in [14]. Besides, the koff in [1] amounted to 0.0554 s⁻¹; in experiment [2], 0.0841 s⁻¹; in experiment [3], 0.00504 s⁻¹; in experiment [4] it was 0.0263 s⁻¹; in experiment [5] it was 0.112 s⁻¹; in [6], 0.139 s⁻¹. Also, the dissociation rate constant (koff) in experiment [7] was determined as 0.0576 s⁻¹; in experiment [8], 0.0275 s⁻¹; in [9] it was 0.00534 s⁻¹; in [10], 0.00223 s⁻¹; in experiment [11], 0.109 s⁻¹; in experiment [12] it was 0.0236 s⁻¹. Besides, the koff in [13] was determined as 0.0053 s⁻¹; in experiment [14], 0.00221 s⁻¹. Moreover, the kon turned out to be 1.59e+06 M⁻¹ s⁻¹ in experiment [1]; 1.45e+06 M⁻¹ s⁻¹ in experiment [2]; 8.2e+06 M⁻¹ s⁻¹ in experiment [3]; 8.82e+06 M⁻¹ s⁻¹ in experiment [4]; 1.33e+06 M⁻¹ s⁻¹ in [5]; 3.66e+06 M⁻¹ s⁻¹ in experiment [6]. The kon in experiment [7] is 1.56e+06 M⁻¹ s⁻¹; in [8], 2.14e+06 M⁻¹ s⁻¹; in experiment [9] it was 7.14e+06 M⁻¹ s⁻¹; in [10] it was 6.67e+06 M⁻¹ s⁻¹; in experiment [11], 3.26e+06 M⁻¹ s⁻¹; in [12], 1.74e+06 M⁻¹ s⁻¹. For the same molecule, the kon in experiment [14] turned out to be 6.59e+06 M⁻¹ s⁻¹; in experiment [15], 6.81e+06 M⁻¹ s⁻¹.

B2: PaB670048 Fab (Fab, V domains shown)
VH: B1 VH with H54S, H57L, H61A, H65K, H66G, V106H
VL: B1 VL
notes: Fab; also called ZZ1KX4-E11
For the molecule B2, the Kd in [1] turned out to be 2.57 nM; in [2] it was 5.12 nM; in experiment [3] it was 0.124 nM; in [4] it was 0.586 nM; in experiment [16] it was 2.49 nM; in experiment [17], 4.48 nM. For the same molecule, the Kd worked out at 0.104 nM in [18] and 0.435 nM in experiment [19]. Further, the koff in experiment [1] came to 0.00497 s⁻¹; in [2], 0.0205 s⁻¹; in experiment [3] it was 0.000519 s⁻¹; in experiment [4], 0.00307 s⁻¹; in experiment [16], 0.00458 s⁻¹; in [17], 0.0217 s⁻¹. The koff in experiment [18] was found to be 0.00058 s⁻¹; in [19] it was 0.00325 s⁻¹. The kon was determined as 1.94e+06 M⁻¹ s⁻¹ in experiment [1]; 4e+06 M⁻¹ s⁻¹ in [2]; 4.2e+06 M⁻¹ s⁻¹ in [3]; 5.24e+06 M⁻¹ s⁻¹ in experiment [4]; 1.84e+06 M⁻¹ s⁻¹ in experiment [16]; 4.84e+06 M⁻¹ s⁻¹ in experiment [17]. The kon in experiment [18] was 5.59e+06 M⁻¹ s⁻¹; in experiment [19], 7.46e+06 M⁻¹ s⁻¹.

B3: PaB670136 Fab (Fab, V domains shown)
VH: B1 VH with S56H, H61A, V64H, V106H
VL: B1 VL
notes: Fab; also called ZZ1RUF-A01
As for B3, the Kd was 18.8 nM in experiment [1], 37.5 nM in [2], 0.957 nM in experiment [3] and 4.15 nM in experiment [4]. In addition, the koff in [2] amounted to 0.0589 s⁻¹; in [3] it was 0.00495 s⁻¹; in experiment [4], 0.0314 s⁻¹; in experiment [20], 14.9 s⁻¹. Further, the kon in experiment [2] was found to be 1.57e+06 M⁻¹ s⁻¹; in [3] it was 5.17e+06 M⁻¹ s⁻¹; in experiment [4] it was 7.57e+06 M⁻¹ s⁻¹; in experiment [20], 7.92e+08 M⁻¹ s⁻¹.

B4: PaB670129 IgG1TM (antibody, V domains shown)
VH: B1 VH
VL: B1 VL
notes: IgG1-TM (L234F, L235E, P331S), human lambda light chain; also called ZZ1RUE-F02
On to B4, for which the “IC50 (read off the curve); calcium response to trypsin in presence of PaB670129, human A549 cells” value in [21] is roughly 0.1 nM. The “Fold IC50 pH 7.4 (Variant v Par0067)” value in experiment [22] came out at 67.2 fold. Also, in [23], the IC50 is 56.1 nM.
